Measurements reported in US20170131285A1 (INSERM INSTITUT NATIONAL DE LA SANTE ET DE LA RECHERCHE …, published 2017).

Target: T1, recombinant HSP70 (Heat Shock 70 kDa Protein) (human, UniProt P0DMV8 1-641)
T1 construct: also called HSP72; human HSP70
Test: BLI (Octet Red), biotinylated A8 on streptavidin sensors, HSP70 in solution, 1:1 model global fit
Description: Protein-protein interaction experiments were conducted at 25° C. in PBS with an Octet Red instrument (Forte Bio, Menlo Park, Calif., USA) by biolayer interferometry (BLI). The ligand (cmHSP70 or A8 or TLR2) was biotinylated using EZ-Link NHS-PEG₄-biotin (Thermo Fisher Scientific, Bonn, Germany) according to the manufacturer's protocol and immobilized at a concentration of 20 μg/ml on streptavidin sensors (ForteBio, Menlo Park, Calif., USA). These functionalized biosensors were dipped into black Greiner 96-well microplates agitated at […] and filled with a solution of 200 μL containing the analyte. All sensorgrams were corrected for baseline drift by subtracting a control sensor exposed to running buffer only. Each KD was determined with a 1:1 stoichiometry model using a global fit with Rmax unlinked by sensor (Forte Bio, Data analysis software version 7.1.0.89).
Protein-protein interaction experiments were conducted with an Octet Red instrument (ForteBio, USA). The ligand (A8 or TLR2) was biotinylated using EZ-Link NHS-PEG₄-biotin (2 nM, 30 min, RT, Thermo Fisher Scientific, Germany) and immobilized on streptavidin sensors (96-well plate black, ForteBio, USA). […] Each KD was determined with a 1:1 stoichiometry model using a global fit with Rmax unlinked by sensor (ForteBio, Data analysis software version 7.1.0.89).

T1 sequence (P0DMV8 whole entry): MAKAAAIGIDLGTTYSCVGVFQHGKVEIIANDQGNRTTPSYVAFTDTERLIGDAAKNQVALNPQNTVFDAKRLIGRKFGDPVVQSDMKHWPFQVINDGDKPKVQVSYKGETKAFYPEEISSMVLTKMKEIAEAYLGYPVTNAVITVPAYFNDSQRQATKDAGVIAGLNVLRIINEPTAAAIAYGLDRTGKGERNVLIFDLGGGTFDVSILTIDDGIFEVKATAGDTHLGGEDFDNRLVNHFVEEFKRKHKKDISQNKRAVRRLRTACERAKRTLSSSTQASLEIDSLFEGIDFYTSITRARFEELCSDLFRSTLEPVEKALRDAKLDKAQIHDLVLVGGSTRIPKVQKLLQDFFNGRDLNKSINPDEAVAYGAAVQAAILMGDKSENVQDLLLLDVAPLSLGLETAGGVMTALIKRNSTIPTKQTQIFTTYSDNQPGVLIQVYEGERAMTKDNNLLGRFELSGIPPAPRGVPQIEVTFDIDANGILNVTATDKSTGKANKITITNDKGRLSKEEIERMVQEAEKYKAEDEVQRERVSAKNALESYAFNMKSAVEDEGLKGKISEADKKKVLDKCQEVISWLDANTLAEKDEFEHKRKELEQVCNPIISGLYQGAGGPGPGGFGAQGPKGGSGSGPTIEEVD

Kd: 2.2 nM
B1: peptide aptamer A8 (peptide)
peptide: SPWPRPTY
modifications: biotinylated with EZ-Link NHS-PEG4-biotin when immobilised on streptavidin sensors for BLI (site not stated); no modification stated for the solution assays
notes: also called A8 peptide aptamer; HSP70 peptide aptamer A8
